Measurements: paper PMC5932363

Target: Proteinase 3 (PR3), purified (UniProt P24158)
Test: SPR; BIAcore 3000; PR3 immobilised on a CM5 chip by amine coupling; C1q, gC1q or cC1q as soluble analytes; 50 mM Tris, 150 mM NaCl, 2 mM Ca2+, 0.005% surfactant P20, pH 7.4; flow 20 µl/min; global fit to a 1:1 Langmuir model; apparent KD from koff/kon

Sequence of Proteinase 3 (PR3), purified (P24158 28-248): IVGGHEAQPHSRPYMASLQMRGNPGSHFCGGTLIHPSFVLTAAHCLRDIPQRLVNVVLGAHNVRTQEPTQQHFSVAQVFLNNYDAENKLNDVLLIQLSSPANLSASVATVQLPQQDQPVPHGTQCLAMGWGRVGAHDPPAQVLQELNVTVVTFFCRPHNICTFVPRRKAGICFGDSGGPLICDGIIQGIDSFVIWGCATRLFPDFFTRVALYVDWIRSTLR

Kd: 400 nM | koff: 0.0072 s⁻¹ | kon: 18000 M⁻¹ s⁻¹
Substance: globular region of C1q (gC1q) (domain or fragment)
